{"source": "paper PMC9332313", "about": "“Folding and Binding Mechanisms of the SH2 Domain from Crkl” (Biomolecules, 2022)", "binders": {"B1": {"name": "dansylated Pax_(112–123) peptide (Dans-GEEEHV-pY-SFPNK) (peptide)", "peptide": "Dansyl-GEEEHV[pY]SFPNK", "notes": "The dansyl group is the FRET acceptor of Trp14 of the SH2 domain; source: synthetic peptide, bought: GenScript"}}, "details_in_all_cases": "both partners purified", "key": {"[1]": {"target": "T1, SH2 domain of Crkl protein (residues 1-111), H80A variant (UniProt P46109 1-111, H80A)", "T1 construct": "Crkl adaptor protein, SH2 domain, residues 1-111, His80 replaced by alanine; Site-directed mutant of m1 (QuikChange); source: E. coli BL21 (DE3), purified (HisTrap nickel column, desalting); not shown: His tag, N-terminal, kept", "T1 sequence (P46109 1-111 H80A)": "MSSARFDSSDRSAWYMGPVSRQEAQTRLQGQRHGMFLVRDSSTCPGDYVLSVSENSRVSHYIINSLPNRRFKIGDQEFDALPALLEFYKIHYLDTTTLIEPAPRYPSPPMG", "assay": "stopped-flow fluorescence kinetics (FRET); dansyl-Pax112-123 constant at 2 μM mixed with Crkl-SH2 2 to 10 μM (pseudo-first-order, kon); koff by displacement of the preincubated 2 µM complex with excess non-dansylated Pax112-123 (30 μM); 283 K; 50 mM BisTRIS pH 6.0, 0.5 M NaCl"}, "[2]": {"target": "T2, SH2 domain of Crkl protein (residues 1-111), H91A variant (UniProt P46109 1-111, H91A)", "T2 construct": "Crkl adaptor protein, SH2 domain, residues 1-111, His91 replaced by alanine; Site-directed mutant of m1 (QuikChange); source: E. coli BL21 (DE3), purified (HisTrap nickel column, desalting); not shown: His tag, N-terminal, kept", "T2 sequence (P46109 1-111 H91A)": "as the sequence (P46109 1-111 H80A) above, with A80H, H91A counted along it", "assay": "stopped-flow fluorescence kinetics (FRET); dansyl-Pax112-123 constant at 2 μM mixed with Crkl-SH2 2 to 10 μM (pseudo-first-order, kon); koff by displacement of the preincubated 2 µM complex with excess non-dansylated Pax112-123 (30 μM); 283 K; 50 mM BisTRIS pH 6.0, 0.5 M NaCl"}, "[3]": {"target": "T3, SH2 domain of Crkl protein (residues 1-111), H33A variant (UniProt P46109 1-111, H33A)", "T3 construct": "Crkl adaptor protein, SH2 domain, residues 1-111, His33 replaced by alanine; Site-directed mutant of m1 (QuikChange); source: E. coli BL21 (DE3), purified (HisTrap nickel column, desalting); not shown: His tag, N-terminal, kept", "T3 sequence (P46109 1-111 H33A)": "as the sequence (P46109 1-111 H80A) above, with H33A, A80H counted along it", "assay": "stopped-flow fluorescence kinetics (FRET); dansyl-Pax112-123 constant at 2 μM mixed with Crkl-SH2 2 to 10 μM (pseudo-first-order, kon); koff by displacement of the preincubated 2 µM complex with excess non-dansylated Pax112-123 (30 μM); 283 K; 50 mM BisTRIS pH 6.0, 0.5 M NaCl"}, "[4]": {"target": "T4, SH2 domain of Crkl protein (residues 1-111), wild type (UniProt P46109 1-111)", "T4 construct": "Crkl adaptor protein, SH2 domain, residues 1-111; Subcloned in pET28b+; all experiments were done on the N-terminally His-tagged protein; also called Crkl-SH2; Crkl SH2 domain; source: E. coli BL21 (DE3), purified (HisTrap nickel column, desalting); not shown: His tag, N-terminal, kept", "T4 sequence (P46109 1-111)": "as the sequence (P46109 1-111 H80A) above, with A80H counted along it", "assay": "stopped-flow fluorescence kinetics (FRET); dansyl-Pax112-123 constant at 2 μM mixed with Crkl-SH2 2 to 10 μM (pseudo-first-order, kon); koff by displacement of the preincubated 2 µM complex with excess non-dansylated Pax112-123 (30 μM); 283 K; 50 mM BisTRIS pH 6.0, 0.5 M NaCl"}, "[5]": {"target": "T3, SH2 domain of Crkl protein (residues …)", "assay": "stopped-flow fluorescence kinetics (FRET); dansyl-Pax112-123 constant at 2 μM mixed with Crkl-SH2 2 to 10 μM (pseudo-first-order, kon); koff by displacement of the preincubated 2 µM complex with excess non-dansylated Pax112-123 (30 μM); 283 K; 50 mM BisTRIS pH 6.8, 0.5 M NaCl"}, "[6]": {"target": "T4, SH2 domain of Crkl protein (residues …)", "assay": "stopped-flow fluorescence kinetics (FRET); dansyl-Pax112-123 constant at 2 μM mixed with Crkl-SH2 2 to 10 μM (pseudo-first-order, kon); koff by displacement of the preincubated 2 µM complex with excess non-dansylated Pax112-123 (30 μM); 283 K; 50 mM BisTRIS pH 6.8, 0.5 M NaCl"}, "[7]": {"target": "T1, SH2 domain of Crkl protein (residues …)", "assay": "stopped-flow fluorescence kinetics (FRET); dansyl-Pax112-123 constant at 2 μM mixed with Crkl-SH2 2 to 10 μM (pseudo-first-order, kon); koff by displacement of the preincubated 2 µM complex with excess non-dansylated Pax112-123 (30 μM); 283 K; 50 mM TrisHCl pH 8.5, 0.5 M NaCl"}, "[8]": {"target": "T2, SH2 domain of Crkl protein (residues …)", "assay": "stopped-flow fluorescence kinetics (FRET); dansyl-Pax112-123 constant at 2 μM mixed with Crkl-SH2 2 to 10 μM (pseudo-first-order, kon); koff by displacement of the preincubated 2 µM complex with excess non-dansylated Pax112-123 (30 μM); 283 K; 50 mM TrisHCl pH 8.5, 0.5 M NaCl"}, "[9]": {"target": "T3, SH2 domain of Crkl protein (residues …)", "assay": "stopped-flow fluorescence kinetics (FRET); dansyl-Pax112-123 constant at 2 μM mixed with Crkl-SH2 2 to 10 μM (pseudo-first-order, kon); koff by displacement of the preincubated 2 µM complex with excess non-dansylated Pax112-123 (30 μM); 283 K; 50 mM TrisHCl pH 8.5, 0.5 M NaCl"}, "[10]": {"target": "T4, SH2 domain of Crkl protein (residues …)", "assay": "stopped-flow fluorescence kinetics (FRET); dansyl-Pax112-123 constant at 2 μM mixed with Crkl-SH2 2 to 10 μM (pseudo-first-order, kon); koff by displacement of the preincubated 2 µM complex with excess non-dansylated Pax112-123 (30 μM); 283 K; 50 mM TrisHCl pH 8.5, 0.5 M NaCl"}}, "note": "Square brackets hold non-standard residues; d marks the D form. Ends that are not written are not given here. * marks the point of attachment. pY = N[C@@H](Cc1ccc(OP(=O)(O)O)cc1)C(=O)O; Dansyl = CN(C)c1cccc2c(S(=O)(=O)*)cccc12"}
{"binder": "B1", "values": [{"measurement": "Kd", "setting": "[1]", "value": "3.2 ± 0.1", "unit": "µM"}, {"measurement": "koff", "setting": "[1]", "value": "19.6 ± 0.3", "unit": "s⁻¹"}, {"measurement": "kon", "setting": "[1]", "value": "6.1e+06 ± 300000", "unit": "M⁻¹ s⁻¹"}, {"measurement": "Kd", "setting": "[2]", "value": "3 ± 0.1", "unit": "µM"}, {"measurement": "koff", "setting": "[2]", "value": "20 ± 0.3", "unit": "s⁻¹"}, {"measurement": "kon", "setting": "[2]", "value": "6.6e+06 ± 200000", "unit": "M⁻¹ s⁻¹"}, {"measurement": "Kd", "setting": "[3]", "value": "3.3 ± 0.2", "unit": "µM"}, {"measurement": "koff", "setting": "[3]", "value": "19.5 ± 0.4", "unit": "s⁻¹"}, {"measurement": "kon", "setting": "[3]", "value": "5.9e+06 ± 300000", "unit": "M⁻¹ s⁻¹"}, {"measurement": "Kd", "setting": "[4]", "value": "2.6 ± 0.2", "unit": "µM"}, {"measurement": "koff", "setting": "[4]", "value": "20.8 ± 0.3", "unit": "s⁻¹"}, {"measurement": "kon", "setting": "[4]", "value": "7.9e+06 ± 600000", "unit": "M⁻¹ s⁻¹"}, {"measurement": "Kd", "setting": "[5]", "value": "3.4 ± 0.2", "unit": "µM"}, {"measurement": "koff", "setting": "[5]", "value": "22.4 ± 0.5", "unit": "s⁻¹"}, {"measurement": "kon", "setting": "[5]", "value": "6.6e+06 ± 400000", "unit": "M⁻¹ s⁻¹"}, {"measurement": "Kd", "setting": "[6]", "value": "2.4 ± 0.1", "unit": "µM"}, {"measurement": "koff", "setting": "[6]", "value": "21.4 ± 0.2", "unit": "s⁻¹"}, {"measurement": "kon", "setting": "[6]", "value": "8.9e+06 ± 400000", "unit": "M⁻¹ s⁻¹"}, {"measurement": "Kd", "setting": "[7]", "value": "3.2 ± 0.5", "unit": "µM"}, {"measurement": "koff", "setting": "[7]", "value": "32.5 ± 2.7", "unit": "s⁻¹"}, {"measurement": "kon", "setting": "[7]", "value": "1.02e+07 ± 1.2e+06", "unit": "M⁻¹ s⁻¹"}, {"measurement": "Kd", "setting": "[8]", "value": "2.6 ± 0.1", "unit": "µM"}, {"measurement": "koff", "setting": "[8]", "value": "34.9 ± 0.5", "unit": "s⁻¹"}, {"measurement": "kon", "setting": "[8]", "value": "1.36e+07 ± 600000", "unit": "M⁻¹ s⁻¹"}, {"measurement": "Kd", "setting": "[9]", "value": "2.1 ± 0.3", "unit": "µM"}, {"measurement": "koff", "setting": "[9]", "value": "26.9 ± 2.8", "unit": "s⁻¹"}, {"measurement": "kon", "setting": "[9]", "value": "1.26e+07 ± 1.4e+06", "unit": "M⁻¹ s⁻¹"}, {"measurement": "Kd", "setting": "[10]", "value": "3.5 ± 0.3", "unit": "µM"}, {"measurement": "koff", "setting": "[10]", "value": "41.6 ± 0.9", "unit": "s⁻¹"}, {"measurement": "kon", "setting": "[10]", "value": "1.2e+07 ± 1.1e+06", "unit": "M⁻¹ s⁻¹"}]}
